Values quoted from earlier work in patent US4287185A, “Method for the detection of viruses” (Suntory Ltd., priority 1978, dated 1981).

Details: mouse, in vivo

B1: neocarzinostatin (protein, UniProt P0A3R9 35-147, looked up)
Neocarzinostatin: AAPTATVTPSSGLSDGTVVKVAGAGLQAGTAYDVGQCAWVDTGVLACNPADFSSVTADANGSASTSLTVRRSFEGFLFDGTRWGTVDCTTAACQVGLSDAAGNGPEGVAISFN
notes: carcinostatic agent having 109 constituent amino acids, already put into clinical practice
**Q.** Which “LD50 compared with that of SP (about 3.5 mg/Kg)” value does the source give for B1 here?
**A.** The value was “almost the same”.
